Consider three proteins from US20110281938.

Series [1] has as its target TFPI (source and species not stated; Examples 8, 12 and 45), P10646.
The target of series [2] is Recombinant human TFPI purified from a cell line from Novo Nordisk.

Sequence of TFPI (source and species not stated; Examples 8, 12 and 45), P10646 (P10646 whole entry, looked up): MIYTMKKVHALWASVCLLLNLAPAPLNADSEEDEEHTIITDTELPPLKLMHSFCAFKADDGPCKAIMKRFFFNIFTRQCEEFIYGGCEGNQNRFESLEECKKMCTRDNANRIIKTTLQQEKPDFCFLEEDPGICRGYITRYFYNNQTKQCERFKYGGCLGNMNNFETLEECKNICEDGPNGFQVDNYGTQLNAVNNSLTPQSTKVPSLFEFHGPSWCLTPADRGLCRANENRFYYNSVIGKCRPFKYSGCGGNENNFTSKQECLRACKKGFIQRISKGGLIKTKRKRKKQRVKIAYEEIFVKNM

B1: tissue factor:FVIIa complex (TF:FVIIa) (protein)
chain 1: SGTTNTVAAYNLTWKSTNFKTILEWEPKPVNQVYTVQISTKSGDWKSKCFYTTDTECDLTDEIVKDVKQTYLARVFSYPAGNVESTGSAGEPLYENSPEFTPYLETNLGQPTIQSFEQVGTKVNVTVEDERTLVRRNNTFLSLRDVFGKDLIYTLYYWKSSSSGKKTAKTNTNEFLIDVDKGENYCFSVQAVIPSRTVNRKSTDSPVECMGQEKGEFREIFYIIGAVVFVVIILVIILAISLHKCRKAGVGQSWKENSPLNVS
chain 2: ANAFLEELRPGSLERECKEEQCSFEEAREIFKDAERTKLFWISYSDGDQCASSPCQNGGSCKDQLQSYICFCLPAFEGRNCETHKDDQLICVNENGGCEQYCSDHTGTKRSCRCHEGYSLLADGVSCTPTVEYPCGKIPILEKRNASKPQGRIVGGKVCPKGECPWQVLLLVNGAQLCGGTLINTIWVVSAAHCFDKIKNWRNLIAVLGEHDLSEHDGDEQSRRVAQVIIPSTYVPGTTNHDIALLRLHQPVVLTDHVVPLCLPERTFSERTLAFVRFSLVSGWGQLLDRGATALELMVLNVPRLMTQDCLQQSRKVGDSPNITEYMFCAGYSDGSKDSCKGDSGGPHATHYRGTWYLTGIVSWGQGCATVGHFGVYTRVSQYIEWLQKLMRSEPRPGVLLRAPFP
Regarding B1, the “TF:FVIIa activity, hydrolysis of fluorogenic substrate SN-17c, 8 nM TFPI” value in series [1] is on record as “TFPI inhibited approximately 50% of TF:FVIIa activity under these conditions”.

B2: extrinsic Xase: re-lipidated recombinant human tissue factor (Innovin) with factor VIIa (Enzyme Research Laboratories) (protein)
chain 1: B1 chain 1
chain 2: B1 chain 2
With B2, the “FXa generation by the extrinsic Xase (chromogenic FXa substrate), 2 nM TFPI” value in series [2] is on record as “curve #6 shows that TFPI shuts down Xa generation in the absence of ARC19499”.

B3: Factor Xa (FXa) (protein)
chain 1: ANSFLEEMKKGHLERECMEETCSYEEAREVFEDSDKTNEFWNKYKDGDQCETSPCQNQGKCKDGLGEYTCTCLEGFEGKNCELFTRKLCSLDNGDCDQFCHEEQNSVVCSCARGYTLADNGKACIPTGPYPCGKQTLER
chain 2: IVGGQECKDGECPWQALLINEENEGFCGGTILSEFYILTAAHCLYQAKRFKVRVGDRNTEQEEGGEAVHEVEVVIKHNRFTKETYDFDIAVLRLKTPITFRMNVAPACLPERDWAESTLMTQKTGIVSGFGRTHEKGRQSTRLKMLEVPYVDRNSCKLSSSFIITQNMFCAGYDTKQEDACQGDSGGPHVTRFKDTYFVTGIVSWGEGCARKGKYGIYTKVTAFLKWIDRSMKTRGLPKAKSHAPEVITSSPLK
Take B3: the “FXa cleavage of chromogenic substrate S-2765, substrate added last, 1 nM FXa” value in series [1] is “In the presence of ≧8 nM TFPI, inhibition is nearly complete under these conditions and little product is formed”.
